Results reported in patent US20210292413A1.

Columns and labels:
[1] = molecular target: T1, human Siglec-3 on cells (moDC, PBMC of CHB patients) (human), P20138; test: co-IP (IP: Siglec-3) from moDC, HBV -, 10C8 +; Western blot, densitometry, normalized to the untreated control [E]; conditions: remark: other sources report otherwise
[2] = molecular target: T1, human Siglec-3 on cells (moDC, PBMC of …); test: co-IP (IP: Siglec-3) from moDC incubated 30 mins with 3x10^8 copies/mL hHBV; Western blot, densitometry, normalized to the first lane [F]; conditions: remark: other sources report otherwise
[3] = molecular target: T1, human Siglec-3 on cells (moDC, PBMC of …); test: co-IP (IP: Siglec-3) from moDC, HBV +, 10C8 -; Western blot, densitometry, normalized to the untreated control [E]; conditions: remark: other sources report otherwise
[4] = molecular target: T1, human Siglec-3 on cells (moDC, PBMC of …); test: co-IP (IP: Siglec-3) from moDC, lane Mock; Western blot, densitometry [A]; conditions: remark: other sources report otherwise
[5] = molecular target: T1, human Siglec-3 on cells (moDC, PBMC of …); test: co-IP (IP: Siglec-3) from moDC incubated 30 mins with 10^9 copies/mL hHBV; Western blot, densitometry, normalized to the first lane [F]; conditions: remark: other sources report otherwise
[6] = molecular target: T1, human Siglec-3 on cells (moDC, PBMC of …); test: co-IP (IP: Siglec-3) from moDC treated with anti-Siglec-3 mAb 2B9; Western blot, densitometry, fold of Mock [A]; conditions: remark: other sources report otherwise
[7] = molecular target: T1, human Siglec-3 on cells (moDC, PBMC of …); test: co-IP (IP: Siglec-3) from moDC incubated with hHBV for 15 min; Western blot, densitometry, normalized to the starting point [E]
[8] = molecular target: T1, human Siglec-3 on cells (moDC, PBMC of …); test: co-IP (IP: Siglec-3) from moDC incubated 30 mins with 10^8 copies/mL hHBV; Western blot, densitometry, normalized to the first lane [F]; conditions: remark: other sources report otherwise
[9] = molecular target: T1, human Siglec-3 on cells (moDC, PBMC of …); test: co-IP (IP: Siglec-3) from moDC treated with HBV (hHBV); Western blot, densitometry, fold of Mock [A]; conditions: remark: other sources report otherwise
[10] = molecular target: T1, human Siglec-3 on cells (moDC, PBMC of …); test: co-IP (IP: Siglec-3) from moDC incubated with hHBV for 60 min; Western blot, densitometry, normalized to the starting point [E]
[11] = molecular target: T1, human Siglec-3 on cells (moDC, PBMC of …); test: co-IP (IP: Siglec-3) from moDC, HBV +, 10C8 + (10C8 given 1 hour before HBV); Western blot, densitometry, normalized to the untreated control [E]; conditions: remark: other sources report otherwise
[12] = molecular target: T1, human Siglec-3 on cells (moDC, PBMC of …); test: co-IP (IP: Siglec-3) from moDC, HBV -, 10C8 -; Western blot, densitometry, normalized to the untreated control [E]; conditions: remark: other sources report otherwise
[13] = molecular target: T1, human Siglec-3 on cells (moDC, PBMC of …); test: co-IP (IP: Siglec-3) from moDC incubated with hHBV for 30 min; Western blot, densitometry, normalized to the starting point [E]
[14] = molecular target: T1, human Siglec-3 on cells (moDC, PBMC of …); test: co-IP (IP: Siglec-3) from moDC incubated with hHBV for 0 min; Western blot, densitometry, normalized to the starting point [E]
[15] = molecular target: T1, human Siglec-3 on cells (moDC, PBMC of …); test: co-IP (IP: Siglec-3) from moDC treated with anti-Siglec-3 mAb 10C8; Western blot, densitometry, fold of Mock [A]; conditions: remark: other sources report otherwise
[16] = molecular target: T1, human Siglec-3 on cells (moDC, PBMC of …); test: co-IP (IP: Siglec-3) from moDC incubated 30 mins with 0 copies/mL hHBV; Western blot, densitometry, normalized to the first lane [F]; conditions: remark: other sources report otherwise

T1 sequence (P20138 18-364): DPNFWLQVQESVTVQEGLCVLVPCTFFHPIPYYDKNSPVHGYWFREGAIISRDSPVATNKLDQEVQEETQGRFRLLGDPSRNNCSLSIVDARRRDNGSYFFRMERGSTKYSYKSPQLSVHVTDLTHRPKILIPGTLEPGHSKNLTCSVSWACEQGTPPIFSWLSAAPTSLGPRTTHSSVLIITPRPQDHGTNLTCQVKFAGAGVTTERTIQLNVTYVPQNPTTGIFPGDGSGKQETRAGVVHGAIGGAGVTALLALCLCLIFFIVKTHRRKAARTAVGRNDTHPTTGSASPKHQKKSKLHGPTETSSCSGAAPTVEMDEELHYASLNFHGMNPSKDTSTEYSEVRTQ

B1: SHP-2, Q06124 2-593 (protein, human, UniProt Q06124 2-593, looked up)
chain: TSRRWFHPNITGVEAENLLLTRGVDGSFLARPSKSNPGDFTLSVRRNGAVTHIKIQNTGDYYDLYGGEKFATLAELVQYYMEHHGQLKEKNGDVIELKYPLNCADPTSERWFHGHLSGKEAEKLLTEKGKHGSFLVRESQSHPGDFVLSVRTGDDKGESNDGKSKVTHVMIRCQELKYDVGGGERFDSLTDLVEHYKKNPMVETLGTVLQLKQPLNTTRINAAEIESRVRELSKLAETTDKVKQGFWEEFETLQQQECKLLYSRKEGQRQENKNKNRYKNILPFDHTRVVLHDGDPNEPVSDYINANIIMPEFETKCNNSKPKKSYIATQGCLQNTVNDFWRMVFQENSRVIVMTTKEVERGKSKCVKYWPDEYALKEYGVMRVRNVKESAAHDYTLRELKLSKVGQGNTERTVWQYHFRTWPDHGVPSDPGGVLDFLEEVHHKQESIMDAGPVVVHCSAGIGRTGTFIVIDILIDIIREKGVDCDIDVPKTIQMVRSQRSGMVQTEAQYRFIYMAVQHYIETLQRRIEEEQKSKRKGHEYTNIKYSLADQTSGDQSPLPPCTPTPPCAEMREDSARVYENVGLMQQQKSFR
fold change of SHP-2 co-precipitated with Siglec-3 [1]: 1.2 fold
fold change of SHP-2 co-precipitated with Siglec-3 [2]: 1.2 fold
fold change of SHP-2 co-precipitated with Siglec-3 [3]: 2.7 fold
fold change of SHP-2 co-precipitated with Siglec-3 [4]: 1 fold
fold change of SHP-2 co-precipitated with Siglec-3 [5]: 1.6 fold
fold change of SHP-2 co-precipitated with Siglec-3 [6]: 4.3 fold
fold change of SHP-2 co-precipitated with Siglec-3 [7]: 1.5 fold
fold change of SHP-2 co-precipitated with Siglec-3 [8]: 1.1 fold
fold change of SHP-2 co-precipitated with Siglec-3 [9]: 1.2 fold
fold change of SHP-2 co-precipitated with Siglec-3 [10]: 1.3 fold
fold change of SHP-2 co-precipitated with Siglec-3 [11]: 1.6 fold
fold change of SHP-2 co-precipitated with Siglec-3 [12]: 1 fold
fold change of SHP-2 co-precipitated with Siglec-3 [13]: 2.4 fold
fold change of SHP-2 co-precipitated with Siglec-3 [14]: 1 fold
fold change of SHP-2 co-precipitated with Siglec-3 [15]: 1.3 fold
fold change of SHP-2 co-precipitated with Siglec-3 [16]: 1 fold
